# Experimental data from PMC5035961.
# Values joined by “and” are separate entries in the source; they are usually repeats but may differ in a detail not shown here. Identical values can stand only once.
# Tests used:
# [1] = biological target: Influenza B nucleoprotein (strain B/Memphis/13/03) (influenza B virus, strain B/Memphis/13/03); test: SEC-MALLS
# [2] = biological target: Influenza B nucleoprotein (strain B/Memphis/13/03) (influenza B virus, strain B/Memphis/13/03); test: negative stain electron microscopy
substance,measurement,setting,value
Influenza B nucleoprotein (strain B/Memphis/13/03) (natural protein),stoichiometry N,[1],5 and 2 and 4
same,stoichiometry N,[2],2 and 4 and 5
